Assay results: patent publication US20120202218A1 (MODPRO, published 2012)

Assays:
[1] = biological target: the molecule itself; assay: Zn2+-induced gold nanoparticle aggregation (UV-vis, TEM)
[2] = biological target: Human Carbonic Anhydrase II (human, UniProt P00918 2-260); assay: Zn2+-induced gold nanoparticle aggregation assay, particles with 0% KE2C-C6 (JR2EC only)

- binding result [2]: no binding (tested: 70 nM)
B1: JR2EC (peptide)
peptide: H-NAADLEKAIEALEKHLEAKGPCDAAQLEKQLEQAFEAFERAG-OH
modifications: also: Cys22 thiol bound to gold nanoparticle surface
notes: Synthetic Glu-rich 42-residue helix-loop-helix peptide; It dimerizes and folds into a four-helix bundle at pH<6, or at pH 7 with Zn2+; Immobilized on gold nanoparticles; also called aggregating polypeptide
- binding result [1]: binds
